T1: HNRNPH1 (hnRNP H1) isoform A (UniProt P31943 P31943:1-449)
T1 sequence: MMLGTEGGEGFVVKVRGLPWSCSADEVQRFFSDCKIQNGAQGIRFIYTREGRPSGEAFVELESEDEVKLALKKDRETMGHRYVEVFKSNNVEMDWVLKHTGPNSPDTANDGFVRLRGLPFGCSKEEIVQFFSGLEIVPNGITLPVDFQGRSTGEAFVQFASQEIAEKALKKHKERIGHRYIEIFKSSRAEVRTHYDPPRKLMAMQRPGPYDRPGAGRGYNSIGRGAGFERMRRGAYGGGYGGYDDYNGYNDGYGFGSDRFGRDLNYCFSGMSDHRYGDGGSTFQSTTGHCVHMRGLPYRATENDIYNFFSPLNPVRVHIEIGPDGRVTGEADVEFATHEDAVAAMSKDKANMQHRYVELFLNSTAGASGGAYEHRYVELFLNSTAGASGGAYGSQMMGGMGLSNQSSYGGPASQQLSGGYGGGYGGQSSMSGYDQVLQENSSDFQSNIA

B1: PD-L1 RNA oligo (ssRNA)
RNA: UAAGGGGUGAGGGGCAGGAGAAUGGGUAUGGAUGGAGGUAGA
B2: JAK2 RNA oligo (ssRNA)
RNA: AUACGUGGGAGUGGGGUGCUGAGCUGGGCAGGGUGAGAGUAU
B3: INCR1 RNA oligo (ssRNA)
RNA: GGGGCGGGCCGGUUGCCGGGGGGAGCUGGAGUCACGUGACGGC

What was measured:
[1] = target: T1, HNRNPH1 (hnRNP H1) isoform A; experiment: MST; value only in figure; same buffer as INCR1; settings: label: 3' FAM (MST); 32P (EMSA)
Experimental: (§1) Microscale thermophoresis. MicroScale Thermophoresis experiments were performed according to the NanoTemper technologies protocol in a Monolith NT.115Pico (red/blue) instrument (NanoTemper Technologies). Serial dilutions of HNRNPH1 were done using a buffer containing 50 mM Tris [pH 8.0], 300 mM KCl, 0.02% NP-40, 10% Glycerol, and 0.5 mg/ml Heparin. RNA oligos were labeled with a FAM moiety at their […] (IDT). The RNA concentration was kept constant at 20 nM throughout the experiments. The RNA-protein mixture was incubated at room temperature for 15 mins before running into the MST instrument. The experiments were performed using 40% and 60% MST power and between 20%-80% LED power at 22_C. The MST traces were recorded using the standard parameters: 5 s MST power off, 30 s medium MST power on and 5 s MST power off. The reported measurement values are the combination of two effects: the fast, local environment dependent responses of the fluorophore to the temperature jump and the slower diffusive thermophoresis fluorescence changes. The data presented here are the average of 3 independent experiments. Average normalized fluorescence (%) was plotted against HNRNPH1 concentration to determine the binding constant (Kd). Ligand depletion model with one binding site was used (Using GraphPad Prism 8) to fit the binding which follows the following model: Y=Bmax*X/(Kd+X).

[2] = target: T1, HNRNPH1 (hnRNP H1) isoform A; experiment: MST; value only in figure; 20 nM RNA, 50 mM Tris pH 8.0, 300 mM KCl, 0.02% NP-40, 10% glycerol, 0.5 mg/ml heparin, 22 C; settings: label: 3' FAM (MST)
Experimental: as §1

Binder	binding result [1]	binding result [2]
B1	binds	
B2	binds	
B3		binds

— patent US20240167098, “METHODS FOR PREDICTING TREATMENT OUTCOME TO CHECKPOINT INHIBITORS IN CANCER” (The Brigham and Women`s Hospital, Inc., published 2024)
